# In the supplement of paper PMC9732359:
# ± gives the uncertainty stated by the source.
# Experiment: protein stability index of a GFP-peptide fusion (yeast GPS) (PSI 1-4); higher = more stable; sorted into four equal gates, so the index is relative within each strain
# Details: pdr5∆
# Summary of the method: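 Plasmids isolated from each sorting gate were PCR-amplified and Illumina-sequenced, and barcodes assigned the reads to strains. The gates, four of equal size, were set by GFP/Cherry fluorescence ratio on mid-log cultures in leucine-free medium. These cultures were yeast carrying a pooled library of tiled 17-residue yeast protein peptides fused downstream of GFP on a plasmid that also expresses Cherry. The protein stability index is the sum of every gate's read frequency times its gate number.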
row,Sequence,protein stability index
1,KPTEVNDSENNSSEEDK [ITC1],2.74 ± 0.082
2,KPVMEVTSSFFYRGNYT [FAS1],2.11 ± 0.065
3,KPYSGKLLKVCLTMFED [ECM29],2.17 ± 0.058
4,KQDKTLQKVENQTIKEA [YIL149C/MLP2],3.15 ± 0.07
5,KQGFVIYRVRVRRGNRK [RPL15A],1.96 ± 0.11
6,KQIDIPNFNVEIMQQKF [ECM29],2.5 ± 0.16
7,KQLNSLRRSGQIANDPS [SMD1],3.02 ± 0.14
8,KQNNKDFRTRYIDIRTN [MTW1],2.65 ± 0.072
9,KQNPGLMQNMMNMFGGG [SRP54],2.36 ± 0.049
10,KQRLDLARQVKLLLLNT [YIL149C/MLP2],2.15 ± 0.058
11,KQSGFGGQTKPVFHKKA [RPL42A],3.14 ± 0.053
12,KQVQDFEENDHPNRVLE [COR1],3.29 ± 0.1
13,KREESESAAVYNGRGAR [SNF2],3.02 ± 0.091
14,KRFNIGADPNYRTYSER [RPR2],3.4 ± 0.14
15,KRKKEANEEPNTENVES [ITC1],2.74 ± 0.046
16,KRKVLELKKKRKIKRLE [SRP72],3.2 ± 0.095
17,KRLNGKRKYLDIPIDEM [SSN2],2.97 ± 0.14
18,KRLTEDERIEKELNTER [CDC53],2.89 ± 0.16
19,KRPIESGTSSDPDTKKV [YIL149C/MLP2],3.2 ± 0.053
20,KRVTKVKRLLFTIRGFK [MTW1],2.52 ± 0.043
21,KSCEPVSISTSVKPHVV [SIR4],2.97 ± 0.077
22,KSDSQYRFYEYIYSQET [MED1],2.44 ± 0.061
23,KSHKQTIVTGGGSGNGD [RPP1],3.55 ± 0.15
24,KSKAEELTQVPSARQKY [UBP6],2.81 ± 0.12
25,KSKLDQDSTSENVKIIN [RPN2],3.3 ± 0.065

row,Sequence,protein stability index
1,KSLDAETEAEEDHMLKK [RPO21],2.56 ± 0.21
2,KSLKNNFYRPLLRSVLV [YML103C/NUP188],1.87 ± 0.075
3,KSMITSEGEQKSAEGNN [YAR002W/NUP60],3.19 ± 0.045
4,KSTPEGTLWAHVLKTVD [SNU114],1.93 ± 0.048
5,KTASLGNSKDDLLDMIQ [ISW2],2.22 ± 0.13
6,KTDTKVSFRTHNSHLSL [SRP21],3.06 ± 0.053
7,KTESQDVETRVQNLEQT [DPB4],3.32 ± 0.065
8,KTEYVLNDLNHLLVQLQ [REC8],3.02 ± 0.25
9,KTHRGLRKVACIGAWHP [RPL3],3.19 ± 0.12
10,KTNIIEKAMDYAISIEN [RPN12],3.25 ± 0.12
11,KTQCPNYDTCGGESAYF [RPC11],2.81 ± 0.26
12,KTQFSWQYYYYTLTEEG [RPS10A],2.33 ± 0.052
13,KTRGPFHFRAPSRIFYK [RPL16A],2.6 ± 0.062
14,KTSCVVEKRIGKIVSQR [RGR1],2.77 ± 0.048
15,KTSLMDLLVIDSHKRIP [SNU114],2.73 ± 0.078
16,KTVCAIALILAIQMVDP [SMC3],1.1 ± 0.072
17,KVEKRVLGLTILRGEQI [SMB1],2.15 ± 0.12
18,KVEYKIVHDDPASDDIL [ITC1],3.09 ± 0.086
19,KVIEQPITSETAMKKVE [RPL25],2.94 ± 0.066
20,KVISSDARGVIGVIAGG [RPL2A],2.82 ± 0.091
21,KVLLPSINISCVQLIKC [SWI1],1.47 ± 0.051
22,KVLTALSRLQKSGRING [SMC4],3.43 ± 0.2
23,KVPQQAAGKRISHIEKR [SMC1],3.14 ± 0.12
24,KVSPSMCGVIVKQYNKK [SIN4],2.98 ± 0.15
25,KVTSTLLEQDTSTEKLY [PRE9],3 ± 0.066

row,Sequence,protein stability index
1,KVVNFWLLHNGFSTGIG [RPO21],2.25 ± 0.1
2,KVVTKKYCEIMGDNSQL [SNF2],3.25 ± 0.14
3,KVWLDPNETSEIAQANS [RPL19A],3.69 ± 0.24
4,KWSKKSMKDRAQHAVIL [RPS25A],2.42 ± 0.095
5,KYHNDLIEKEIQPKITE [SMC1],3.05 ± 0.083
6,KYIALQVIVDIFSVHGN [YCG1],1.36 ± 0.14
7,KYKPTPLYVMDEIDAAL [SMC4],3.06 ± 0.11
8,KYNRYEKRHKNVPVHVS [RPS11A],1.66 ± 0.044
9,KYPIFTGESWVKLTYNS [YDL088C/ASM4],2.07 ± 0.068
10,KYRQTKLSKEERAARVA [RPL5],3.05 ± 0.071
11,KYSKLVDNVTLESYKTQ [SRP72],3.22 ± 0.16
12,LAAPKKLNDSQRKTVNS [POP1],2.98 ± 0.12
13,LAAVPAAGPASAGGAAA [RPP2A],1.58 ± 0.063
14,LAFIPNILALNLVSLLI [YML031W/NDC1],1.38 ± 0.044
15,LAHSQHRCAIRSGALIK [SSN2],1.22 ± 0.046
16,LAHVDQIVDIRNKRAVQ [YJL039C/NUP192],2.55 ± 0.12
17,LAIADSPQKFETNLQTF [ECM29],3.3 ± 0.098
18,LAIIGDENPDLLGYTGI [PRE8],1.93 ± 0.081
19,LALERMVPKRSTIITKA [YCS4],1.47 ± 0.066
20,LALINYGRQELADDLIT [RPN2],1.82 ± 0.26
21,LANLIRDALRNIKNTNE [RRP6],2.51 ± 0.055
22,LASAIASGLLRAYLSHS [CSN12],1.5 ± 0.052
23,LASIPDIFITPTPVVTI [SSN2],1.65 ± 0.054
24,LCAGANNPKIQTKDSVK [IRR1],2.99 ± 0.1
25,LCLEKLMCLSSKYCEKS [YCS4],2.34 ± 0.087

row,Sequence,protein stability index
1,LCVLDYDNIDIQRGRIL [RPB7],1.93 ± 0.1
2,LDAKNKVFVPPKSKSLP [RPO31],3.03 ± 0.062
3,LDDDSIVNHEQDLPKIN [SRB4],2.92 ± 0.082
4,LDDITDSNTTEILTSVD [SIR4],3.18 ± 0.072
5,LDDLVVLKKKNIQKKQP [RRP6],1.38 ± 0.061
6,LDEVDAALDITNVQRIA [SMC1],3.06 ± 0.098
7,LDFIGRRGTALGIKKEK [RPB2],2.03 ± 0.097
8,LDISVFLLEKAGERKIP [TAF14],2.43 ± 0.072
9,LDKHERKWMEEKADYER [YIL149C/MLP2],3.35 ± 0.15
10,LDKLDEILYYQIKTLPE [AAR2],2.97 ± 0.14
11,LDLKECYQFAEYLFKPQ [ARP7],3.06 ± 0.08
12,LDLLRPVVRAPTVKYNR [RPL13A],2.38 ± 0.2
13,LDSMIELFKDYKPGSIT [MED1],1.94 ± 0.047
14,LDVDPAKRIRVSHHATT [RPB2],3.04 ± 0.06
15,LDYVRTPAAATSPIDIR [SNF2],2.45 ± 0.063
16,LEASYSKSYTPRKLVLS [SMC4],2.52 ± 0.059
17,LEEITQYEHLIKGIREY [YDL116W/NUP84],3.07 ± 0.13
18,LEEKLYQMQSNYESVFT [YIL149C/MLP2],1.71 ± 0.028
19,LEELAETFQDTFSGALG [FAS2],3.06 ± 0.077
20,LEFYKDKFFNEVNKSEL [SIR3],3.27 ± 0.058
21,LELGSCFSQENIEEMAR [SIN4],2.21 ± 0.073
22,LELIGVLSINPDMYERK [MED7],2.98 ± 0.086
23,LELLNQLDGFSSDDRVK [RPT5],3.15 ± 0.056
24,LELQVAQAFVELENSSP [RPS7A],3.14 ± 0.15

# Same assay, conditions: san1∆
row,Sequence,protein stability index
1,KPNDLVGVNKDSYLILD [RPT5],3.35 ± 0.082
2,KPSLVDVHLLESKVYHK [RPN6],1.77 ± 0.086
